Data: publication PMC6359379, “SLC35A5 Protein—A Golgi Complex Member with Putative Nucleotide Sugar Transport Activity” (International Journal of Molecular Sciences, 2019)

B1: Solute carrier family 35 member A5 (SLC35A5), eGFP fusion (natural protein, human, UniProt Q9BS91 1-424, looked up)
chain: MEKQCCSHPVICSLSTMYTFLLGAIFIALSSSRILLVKYSANEENKYDYLPTTVNVCSELVKLVFCVLVSFCVIKKDHQSRNLKYASWKEFSDFMKWSIPAFLYFLDNLIVFYVLSYLQPAMAVIFSNFSIITTALLFRIVLKRRLNWIQWASLLTLFLSIVALTAGTKTLQHNLAGRGFHHDAFFSPSNSCLLFRSECPRKDNCTAKEWTFPEAKWNTTARVFSHIRLGMGHVLIIVQCFISSMANIYNEKILKEGNQLTESIFIQNSKLYFFGILFNGLTLGLQRSNRDQIKNCGFFYGHSAFSVALIFVTAFQGLSVAFILKFLDNMFHVLMAQVTTVIITTVSVLVFDFRPSLEFFLEAPSVLLSIFIYNASKPQVPEYAPRQERIRDLSGNLWERSSGDGEELERLTKPKSDESDEDTF
notes: SLC35A5, putative nucleotide sugar transporter; expressed from the plasmid pTag-GFP2-C-A5; FRET donor in every pair; In the pair A5 + A5 the second copy carried mRFP (pTag-RFP-C-SLC35A construct) in place of eGFP; also called pTag-GFP2-C-A5; source: HEK293T, transiently transfected, in living cells

Columns and labels:
[1] = molecular target: B1; test: FRET or BRET; FLIM/FRET in living HEK293T cells transiently co-transfected, analysed 48 h after transfection in FluoroBrite DMEM; SLC35A5-eGFP as donor, mRFP-tagged SLC35A proteins as acceptors; eGFP lifetime of the donor alone 2.70 ns; details: partners not purified
[2] = molecular target: the molecule itself; test: as above

eGFP fluorescence lifetime of the donor with the acceptor (donor alone 2.70 ns) [1] [ns] | Binder | eGFP fluorescence lifetime of the donor with the acceptor (donor alone 2.70 ns) [2] [ns]
2.39 | SLC35A4, mRFP fusion (natural protein, UniProt Q96G79 1-324, looked up, SLC35A4, member of the SLC35A subfamily; expressed from a pTag-RFP-C-SLC35A construct; FRET acceptor; source: HEK293T, transiently transfected, in living cells) MSVEDGGMPGLGRPRQARWTLMLLLSTAMYGAHAPLLALCHVDGRVPFRPSSAVLLTELTKLLLCAFSLLVGWQAWPQGPPPWRQAAPFALSALLYGANNNLVIYLQRYMDPSTYQVLSNLKIGSTAVLYCLCLRHRLSVRQGLALLLLMAAGACYAAGGLQVPGNTLPSPPPAAAASPMPLHITPLGLLLLILYCLISGLSSVYTELLMKRQRLPLALQNLFLYTFGVLLNLGLHAGGGSGPGLLEGFSGWAALVVLSQALNGLLMSAVMKHGSSITRLFVVSCSLVVNAVLSAVLLRLQLTAAFFLATLLIGLAMRLYYGSR | –
2.29 | CMP-sialic acid transporter (SLC35A1), mRFP fusion (natural protein, UniProt P78382 1-337, looked up, SLC35A1, CMP-sialic acid transporter; expressed from a pTag-RFP-C-SLC35A construct; FRET acceptor; The legend writes 'mRFP/SLC35A proteins'; also called mRFP/SLC35A1; source: HEK293T, transiently transfected, in living cells) MAAPRDNVTLLFKLYCLAVMTLMAAVYTIALRYTRTSDKELYFSTTAVCITEVIKLLLSVGILAKETGSLGRFKASLRENVLGSPKELLKLSVPSLVYAVQNNMAFLALSNLDAAVYQVTYQLKIPCTALCTVLMLNRTLSKLQWVSVFMLCAGVTLVQWKPAQATKVVVEQNPLLGFGAIAIAVLCSGFAGVYFEKVLKSSDTSLWVRNIQMYLSGIIVTLAGVYLSDGAEIKEKGFFYGYTYYVWFVIFLASVGGLYTSVVVKYTDNIMKGFSAAAAIVLSTIASVMLFGLQITLTFALGTLLVCVSIYLYGLPRQDTTSIQQGETASKERVIGV | –
– | B1 | 2.51
2.35 | UDP-N-acetylglucosamine transporter (SLC35A3), mRFP fusion (natural protein, UniProt Q9Y2D2 1-325, looked up, SLC35A3, UDP-N-acetylglucosamine transporter; expressed from a pTag-RFP-C-SLC35A construct; FRET acceptor; source: HEK293T, transiently transfected, in living cells) MFANLKYVSLGILVFQTTSLVLTMRYSRTLKEEGPRYLSSTAVVVAELLKIMACILLVYKDSKCSLRALNRVLHDEILNKPMETLKLAIPSGIYTLQNNLLYVALSNLDAATYQVTYQLKILTTALFSVSMLSKKLGVYQWLSLVILMTGVAFVQWPSDSQLDSKELSAGSQFVGLMAVLTACFSSGFAGVYFEKILKETKQSVWIRNIQLGFFGSIFGLMGVYIYDGELVSKNGFFQGYNRLTWIVVVLQALGGLVIAAVIKYADNILKGFATSLSIILSTLISYFWLQDFVPTSVFFLGAILVITATFLYGYDPKPAGNPTKA | –
2.24 | UDP-galactose transporter (SLC35A2), Golgi splice variant, mRFP fusion (natural protein, UniProt P78381-2 1-393, looked up, expressed from a pTag-RFP-C-SLC35A construct; FRET acceptor; also called first splice variant of SLC35A2; source: HEK293T, transiently transfected, in living cells) MAAVGAGGSTAAPGPGAVSAGALEPGTASAAHRRLKYISLAVLVVQNASLILSIRYARTLPGDRFFATTAVVMAEVLKGLTCLLLLFAQKRGNVKHLVLFLHEAVLVQYVDTLKLAVPSLIYTLQNNLQYVAISNLPAATFQVTYQLKILTTALFSVLMLNRSLSRLQWASLLLLFTGVAIVQAQQAGGGGPRPLDQNPGAGLAAVVASCLSSGFAGVYFEKILKGSSGSVWLRNLQLGLFGTALGLVGLWWAEGTAVATRGFFFGYTPAVWGVVLNQAFGGLLVAVVVKYADNILKGFATSLSIVLSTVASIRLFGFHVDPLFALGAGLVIGAVYLYSLPRGAAKAIASASASASGPCVHQQPPGQPPPPQLSSHRGDLITEPFLPKSVLVK | –
2.31 | UDP-galactose transporter (SLC35A2), ER splice variant, mRFP fusion (natural protein, UniProt P78381-1 1-396, looked up, SLC35A2, UDP-galactose transporter, the second splice variant, localised mainly to the ER (A2-ER); expressed from a pTag-RFP-C-SLC35A construct; FRET acceptor; also called second splice variant of SLC35A2; source: HEK293T, transiently transfected, in living cells) MAAVGAGGSTAAPGPGAVSAGALEPGTASAAHRRLKYISLAVLVVQNASLILSIRYARTLPGDRFFATTAVVMAEVLKGLTCLLLLFAQKRGNVKHLVLFLHEAVLVQYVDTLKLAVPSLIYTLQNNLQYVAISNLPAATFQVTYQLKILTTALFSVLMLNRSLSRLQWASLLLLFTGVAIVQAQQAGGGGPRPLDQNPGAGLAAVVASCLSSGFAGVYFEKILKGSSGSVWLRNLQLGLFGTALGLVGLWWAEGTAVATRGFFFGYTPAVWGVVLNQAFGGLLVAVVVKYADNILKGFATSLSIVLSTVASIRLFGFHVDPLFALGAGLVIGAVYLYSLPRGAAKAIASASASASGPCVHQQPPGQPPPPQLSSHRGDLITEPFLPKLLTKVKGS | –
